From patent US20240199757A1 (UNIVERSITY OF CHICAGO, published 2024) come the findings set out here.

What is called kon is the rate constant with which the complex forms. For orientation: EC50 means the concentration giving half of the maximal effect.

Series [1] concerns the target T1, hNT5EDF (substrate binding knock-out variant of hNT5E) (human). The series is described as follows: DSF thermal shift, 1.5-fold molar excess of Fab, no ATP (hNT5EDF alone 44° C.). As for the experimental part: (§1) With 1 mM ATP alone (red dashed line), the TM shifts from one transition at 49° C. to two transitions at TM 59° C. and 64° C. […] Thermal shift assays of substrate binding knock-out variants hNT5EDF (FIG. 2B) and hNT5EFF (FIG. 2C) show no change in thermal stability with the addition of ATP.
(§2) Thermal stability of samples was analyzed by differential scanning fluorimetry (DSF) using a real-time PCR instrument (Bio-Rad CFX384). Protein samples were mixed with 4× Sypro Orange at a final 4 μM concentration. For target/Fab complexes, 1.5-fold molar excess of Fab was used. All reactions were performed in triplicates in a 384-well plate. Thermal melting curves were monitored from 25° C. to 95° C. in steps of 0.5° C./30 s. Wavelengths of 490 and 575 nm were used for excitation and emission, respectively. The melting temperatures were inferred from the first derivative of the melting curves from the mean of triplicate runs using CFX software provided by the manufacturer.

In series [2] the target is T2, N-terminal domain of human NT5E (human, UniProt P21589 27-335).
T2 construct: also called N-terminal hNT5E
T2 sequence: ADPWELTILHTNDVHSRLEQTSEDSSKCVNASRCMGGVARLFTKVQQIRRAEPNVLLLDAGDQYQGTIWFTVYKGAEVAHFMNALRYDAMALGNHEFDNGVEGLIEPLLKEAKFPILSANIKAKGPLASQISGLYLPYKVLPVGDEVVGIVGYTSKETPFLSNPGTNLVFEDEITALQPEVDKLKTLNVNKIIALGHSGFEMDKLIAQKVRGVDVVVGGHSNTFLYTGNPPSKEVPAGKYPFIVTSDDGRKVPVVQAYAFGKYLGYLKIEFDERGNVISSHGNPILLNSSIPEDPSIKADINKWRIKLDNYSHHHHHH
Nature of the series: SPR, His-captured N-terminal domain, single injection, ATP-free buffer. As for the experimental part:
(§3) All SPR experiments were performed at 25° C. using MASS-1 (Bruker) instrument. hNT5E, mNT5E and cNT5E were immobilized onto a nitrilotriacetic acid (NTA) sensor chip via His-tag. For kinetic experiments, after ligand immobilization, 2-fold serial dilutions of the Fabs were injected. After double-reference subtraction data were analyzed with BiaEvaluation (GE Healthcare) or Sierra Analyser (Bruker) software. The experiments were carried in buffers in presence and absence of 1 mM ATP to compare the kinetic parameters of the Fabs binding to closed and open form of NT5E.
In the domain binding experiments, full-length, N-terminal, and C-terminal hNT5E were immobilized as described above.
A general note: Surface plasmon resonance follows binding to a sensor surface in real time, without labels.

Series [3] has as its target T1, hNT5EDF (substrate binding knock-out …). The series is described as follows: DSF thermal shift, 1.5-fold molar excess of Fab, 1 mM ATP (hNT5EDF alone 46° C.). As for the experimental part:
as §1, §2

The target of series [4] is T3, Full-length cynomolgus NT5E (recombinant) (cynomolgus, UniProt P21589 27-549 (human entry)).
T3 construct: also called cNT5E; cyno NT5E
T3 chain: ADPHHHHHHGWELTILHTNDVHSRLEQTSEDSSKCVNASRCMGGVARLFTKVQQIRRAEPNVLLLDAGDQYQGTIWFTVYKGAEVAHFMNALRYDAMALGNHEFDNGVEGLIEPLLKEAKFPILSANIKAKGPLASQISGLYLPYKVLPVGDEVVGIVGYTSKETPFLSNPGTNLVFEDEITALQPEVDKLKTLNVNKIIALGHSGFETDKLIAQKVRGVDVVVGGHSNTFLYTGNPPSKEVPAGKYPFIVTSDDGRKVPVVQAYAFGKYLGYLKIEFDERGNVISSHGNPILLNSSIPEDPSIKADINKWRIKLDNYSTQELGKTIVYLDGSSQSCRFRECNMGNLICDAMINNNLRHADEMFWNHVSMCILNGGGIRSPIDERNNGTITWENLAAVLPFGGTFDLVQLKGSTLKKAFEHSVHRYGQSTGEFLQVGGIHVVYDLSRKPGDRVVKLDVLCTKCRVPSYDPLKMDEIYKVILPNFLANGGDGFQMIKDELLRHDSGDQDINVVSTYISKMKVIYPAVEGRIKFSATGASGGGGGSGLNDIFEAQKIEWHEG
The series is described as follows: SPR, His-captured NT5E, no ATP; SPR, No ATP. As for the experimental part: as §3

Series [5] addresses T3, Full-length cynomolgus NT5E …. Nature of the series: ELISA, biotinylated NT5E on neutravidin plate, no cofactors (apo). As for the experimental part: (§4) (B) Protein ELISA: Protein-based multipoint ELISA was performed to estimate the affinity of the generated Fabs and IgGs to NT5E. The binding of the Fabs and IgGs to the closed form of NT5E were determined in ELISA buffer (HBST) supplemented with 10 μM zinc chloride and 1 mM ATP while the binding of the same to open form of NT5E were determined in ELISA buffer (HBST) without any cofactors. A fixed concentration of the immobilized target (50 nM) on ELISA plate was incubated with 3-fold serial dilutions of the purified Fabs and IgGs starting from 3 μM and 1 μM respectively for 15 min. The plates were washed and were subsequently incubated with a secondary HRP-conjugated anti-protein L monoclonal antibody (#32420, ThermoFisher, 1:6000 dilution). As with phage ELISA, the plates were again washed, developed with TMB substrate and quenched with 1.0 M HCl, and absorbance (Abs450) was determined. To determine the affinity (EC50), the data were fitted with a non-linear, 4-parameter logistic curve in OriginLab.

In series [6] the target is T4, Full-length human NT5E (recombinant, in-house) (human, UniProt P21589 27-549).
T4 construct: also called hNT5E; hNT5EWT
T4 sequence: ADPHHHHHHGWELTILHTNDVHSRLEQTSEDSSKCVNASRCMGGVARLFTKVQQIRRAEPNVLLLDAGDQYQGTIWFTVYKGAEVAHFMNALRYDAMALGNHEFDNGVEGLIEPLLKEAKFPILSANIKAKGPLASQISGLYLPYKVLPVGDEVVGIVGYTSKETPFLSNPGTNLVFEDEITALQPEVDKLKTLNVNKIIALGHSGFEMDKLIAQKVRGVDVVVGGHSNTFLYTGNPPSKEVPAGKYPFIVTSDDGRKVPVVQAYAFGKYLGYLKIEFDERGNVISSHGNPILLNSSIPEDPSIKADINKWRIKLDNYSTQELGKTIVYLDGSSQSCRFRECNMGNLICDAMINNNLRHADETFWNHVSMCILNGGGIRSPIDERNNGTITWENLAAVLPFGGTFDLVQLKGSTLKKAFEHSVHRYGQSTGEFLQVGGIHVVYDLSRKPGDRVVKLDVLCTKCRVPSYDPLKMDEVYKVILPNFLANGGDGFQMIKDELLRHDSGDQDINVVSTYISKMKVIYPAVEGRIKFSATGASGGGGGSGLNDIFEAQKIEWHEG
The description is as above. As for the experimental part:
as §4

B1: 1789 Fab (Fab, V domains shown)
VH: EVQLVESGGGLVQPGGSLRLSCAASGFNVSYSSIHWVRQAPGKGLEWVASISSSSGYTYYADSVKGRFTISADTSKNTAYLQMNSLRAEDTAVYYCARNYWGWYPFYYFAFDYWGQGTLVTV
VL: DIQMTQSPSSLSASVGDRVTITCRASQSVSSAVAWYQQKPGKAPKLLIYSASSLYSGVPSRFSGSRSGTDFTLTISSLQPEDFATYYCQQGWDYPITFGQGTKVEIKR
For the molecule B1, the “TM of NT5E in the presence of the Fab” value in series [1] worked out at 48 ° C; in series [3], 46 ° C. The binding result in series [2] is on record as “no binding (tested: 200 nM)”. For the same molecule, the on-rate (kon) in series [4] worked out at 140000 M⁻¹ s⁻¹.

B2: 1789 IgG (antibody, V domains shown)
VH: EVQLVESGGGLVQPGGSLRLSCAASGFNVSYSSIHWVRQAPGKGLEWVASISSSSGYTYYADSVKGRFTISADTSKNTAYLQMNSLRAEDTAVYYCARNYWGWYPFYYFAFDYWGQGTLVTVSS
VL: DIQMTQSPSSLSASVGDRVTITCRASQSVSSAVAWYQQKPGKAPKLLIYSASSLYSGVPSRFSGSRSGTDFTLTISSLQPEDFATYYCQQGWDYPITFGQGTKVEIKR
With B2, the EC50 was found to be 1.04 nM in series [5] and 2.14 nM in series [6].
